Literature values in PMC5148012.
pKd: −log10 of the molar value.

Target: GP1bα (glycocalicin) glycocalicin (extracellular part) (Homo sapiens) (UniProt P07359)
Sequence of UniProt P07359 (P07359 17-506): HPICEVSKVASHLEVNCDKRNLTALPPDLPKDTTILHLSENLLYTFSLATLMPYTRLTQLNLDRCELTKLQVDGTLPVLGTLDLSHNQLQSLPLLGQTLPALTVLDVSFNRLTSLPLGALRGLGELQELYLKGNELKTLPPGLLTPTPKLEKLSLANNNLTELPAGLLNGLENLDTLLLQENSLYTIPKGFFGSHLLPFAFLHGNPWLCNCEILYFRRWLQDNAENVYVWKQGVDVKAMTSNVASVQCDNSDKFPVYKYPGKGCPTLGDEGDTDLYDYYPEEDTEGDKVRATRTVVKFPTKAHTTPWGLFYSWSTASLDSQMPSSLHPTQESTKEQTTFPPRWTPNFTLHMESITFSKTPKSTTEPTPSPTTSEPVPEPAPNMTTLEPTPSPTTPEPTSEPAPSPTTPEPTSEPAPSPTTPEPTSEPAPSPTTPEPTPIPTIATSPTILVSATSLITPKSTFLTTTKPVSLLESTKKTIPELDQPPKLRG

pKd: 4.35
Substance: HbA (from UniProt P69905)
